# Tested on: N#CCCC#N
# Experiment: purified protein
# Assay type: biochemical, uncultured Burkholderiaceae bacterium
# Conditions: 50 mM potassium phosphate pH 7.0, 40 °C, 2 mM DTT, 0-975 mM substrate
substance,measurement,value
NitraS-ATII (uncultured Burkholderiaceae bacterium),Km,59.4 ± 6.8 mM
same,kcat,0.472 s⁻¹
